{
  "source": "patent US20080152587A1",
  "about": "(Amgen, published 2008)",
  "binders": {"B1": {"name": "anti-uPAR monoclonal antibody 4.12.1 (antibody, V domains shown)", "VH": "EVQLVESGGGLVQPGGSLRLSCAASGFTFSSYWMSWVRQAPGTGLDWVANINQDGSERYYVDSVKGRFTISRDNAKNSPHLQMNSLRAEDTAVYYCAREGSGGRYGGWYFDLWGRGTLVTVSS", "VL": "not shown"}, "B2": {"name": "anti-uPAR monoclonal antibody 1.99.1 (antibody, V domains shown)", "VH": "EVQLVESGGGLIQPGGSLRLSCAASGFTVRSNYMSWVRQAPGKGLEWISVIYTGGSTYYADSVKGRFSISRDNSKNTLYLQMNSLRAEDTAVYYCAREGAVAGFDYWGQGTLVTVSS", "VL": "EIVMTQSPATLSVSPGERATLSCRASQSISSNLAWYQQKPGQAPRLLIYGASTRATGIPARFSGSGSGTEFTLTISSLQSEDFAVYYCQQYTNWPLTFGGGTKVEIK"}, "B3": {"name": "anti-uPAR monoclonal antibody 4.19.1 (antibody, V domains shown)", "VH": "EVQLVESGGGLIQPGGSLRLSCAASGFSVSSNYMNWVRQAPGKGLEWVSVIYTGGSTYYADSVKGRFTISRDNSKNTLYLQMNSLRAEDTAVYYCARDTYLYGMDVWGQGTTVTVSS", "VL": "B2 VL with R18S, A25T, I29V, A43T, T53A, I58V, T92Y"}, "B4": {"name": "anti-uPAR monoclonal antibody 4.13.1 (antibody, V domains shown)", "VH": "EVQLLESGGGLVQPGGSLRLSCAASGFTFSSYAMSWVRQAPGKGLEWVLGISGSGGSTYYADSVKGRFTISRDNSKNTLYLQMNSLRAEDTAVYYCAKDGYGDYVGWYFDLWGRGTLVTVSS", "VL": "not shown", "notes": "also called 4.13.2"}, "B5": {"name": "anti-uPAR monoclonal antibody 4.50.1 (antibody, V domains shown)", "VH": "QVQLVESGGGVVQPGRSLRLSCAASGFTFSSYGMHWVRQAPGKGLEWVAVIWYDGSNKDYADSVKGRFTISRDNSKNTLYLQMNSLRAEDTAVYYCARDMIVVVITYAFDIWGQGTMVTVSS", "VL": "not shown", "notes": "also called 4.50.2"}},
  "note": "Numbering of substitutions follows the chain as printed.",
  "data": [
    {"molecular_target": "T1, human urokinase-type plasminogen activator receptor (uPAR, CD87), cell-bound (human, UniProt Q03405 23-305)", "T1 construct": "whole, on cells; On B300.19 or L929 transfectants (full length cDNA), or native on U937 and PC-3 cells", "T1 sequence (Q03405 23-305)": "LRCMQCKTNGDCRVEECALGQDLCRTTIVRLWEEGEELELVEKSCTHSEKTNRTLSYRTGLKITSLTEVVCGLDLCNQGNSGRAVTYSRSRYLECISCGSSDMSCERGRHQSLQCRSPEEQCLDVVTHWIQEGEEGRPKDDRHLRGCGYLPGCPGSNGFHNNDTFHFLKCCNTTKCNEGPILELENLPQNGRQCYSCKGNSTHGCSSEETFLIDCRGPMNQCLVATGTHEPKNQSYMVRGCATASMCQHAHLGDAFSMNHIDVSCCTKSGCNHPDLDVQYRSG", "test": "FACS competition with FITC-tc-uPA, line material", "units": {"Human uPAR/uPA binding inhibition (%, line material)": "%"}, "excerpt": "(§1) Briefly, murine fibroblast L929 cells (ATCC) were transfected to express human uPAR.", "values": [
      {"binder": "B1", "Human uPAR/uPA binding inhibition (%, line material)": 71},
      {"binder": "B2", "Human uPAR/uPA binding inhibition (%, line material)": 78},
      {"binder": "B3", "Human uPAR/uPA binding inhibition (%, line material)": 77},
      {"binder": "B4", "Human uPAR/uPA binding inhibition (%, line material)": 78},
      {"binder": "B5", "Human uPAR/uPA binding inhibition (%, line material)": 67}
    ]},
    {"molecular_target": "T2, cynomolgus monkey uPAR, cell-bound (cynomolgus monkey, UniProt Q9GK78 23-305)", "T2 construct": "whole, on cells; also called cyno-uPAR", "T2 sequence (Q9GK78 23-305)": "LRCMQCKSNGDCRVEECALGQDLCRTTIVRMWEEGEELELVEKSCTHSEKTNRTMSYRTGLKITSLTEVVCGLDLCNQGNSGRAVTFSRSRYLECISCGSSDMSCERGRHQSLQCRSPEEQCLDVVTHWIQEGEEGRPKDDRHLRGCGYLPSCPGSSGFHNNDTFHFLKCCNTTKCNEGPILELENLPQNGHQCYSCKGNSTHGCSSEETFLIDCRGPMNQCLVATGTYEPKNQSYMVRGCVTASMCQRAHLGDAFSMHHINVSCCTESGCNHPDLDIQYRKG", "test": "FACS, GeoMean; cynomolgus uPAR expressed on 293T cells; antibody concentration not given", "values": [
      {"binder": "B1", "binding result": "binds"},
      {"binder": "B2", "binding result": "binds"},
      {"binder": "B3", "binding result": "binds"},
      {"binder": "B5", "binding result": "binds"}
    ]},
    {"molecular_target": "T1, human urokinase-type plasminogen …", "test": "FACS, U937 cells, mAb 5 µg/ml on ice, alexa647 goat anti-human F(ab), not stripped", "description": "A cell suspension containing 100,000 cells was pipetted into each well of a V-bottom plates in duplicate. Two V-bottom plates were prepared, one to be kept at 37° C. during internalization with antibody complex, and the other to be incubated at 4° C. Each of the eight uPAR mAbs was incubated with U937 cells at 5 μg/ml on ice for 15 min. Incubation on ice was necessary to prevent internalization of the primary mAbs. The cells were then washed with cold FACS buffer. Cells were subsequently incubated on ice in 100 μl of 5 μg/ml alexa647-labelled goat anti-humanF(ab) (Invitrogen catalogue number A21249) in cold FACS buffer for 15 min. This allowed the goat FAB bind to the bound uPAR mAbs without permitting any internalization. After a 15 minute incubation on ice, one plate was kept on ice, while the other plate was incubated at 37° C. for 1 hour.\nFollowing the 1 hr incubation with the mAb-FAB complex, the cells were washed twice with cold 5% FACS buffer, and 200 μl of Tris(2-carboxyethyl)phosphine HCl (TCEP) was added to each well as a stripping agent. The plates were both incubated with TCEP on ice for 1 hour, followed by washing and resuspending with FACS buffer. 4 μl of 7-Amino-Actinomycin D (7AAD) was added to each well, followed by 10 min incubation on ice before FACS analysis was conducted.", "values": [
      {"binder": "B1", "geo mean cold - TCEP": 33.4},
      {"binder": "B2", "geo mean cold - TCEP": 42.5},
      {"binder": "B3", "geo mean cold - TCEP": 46},
      {"binder": "B4", "geo mean cold - TCEP": 37.4},
      {"binder": "B5", "geo mean cold - TCEP": 42.1}
    ]},
    {"molecular_target": "T1, human urokinase-type plasminogen …", "test": "cell-based or functional assay", "units": {"inhibition of plasminogen activation on U937 cells": "%"}, "values": [
      {"binder": "B1", "inhibition of plasminogen activation on U937 cells": "> 90"},
      {"binder": "B2", "inhibition of plasminogen activation on U937 cells": "> 90"},
      {"binder": "B3", "inhibition of plasminogen activation on U937 cells": "> 90"},
      {"binder": "B4", "inhibition of plasminogen activation on U937 cells": "> 90"},
      {"binder": "B5", "inhibition of plasminogen activation on U937 cells": "> 90"}
    ]},
    {"molecular_target": "T3, soluble recombinant human uPAR/His6 (R&D Systems, Cat. # 807-UK-100) (human, UniProt Q03405 23-303)", "T3 construct": "range 1-303; Bought protein; also called soluble uPAR; hu-uPAR", "T3 sequence (Q03405 other isoform, or with tags, fused parts or gaps limits assumed, form in doubt)": "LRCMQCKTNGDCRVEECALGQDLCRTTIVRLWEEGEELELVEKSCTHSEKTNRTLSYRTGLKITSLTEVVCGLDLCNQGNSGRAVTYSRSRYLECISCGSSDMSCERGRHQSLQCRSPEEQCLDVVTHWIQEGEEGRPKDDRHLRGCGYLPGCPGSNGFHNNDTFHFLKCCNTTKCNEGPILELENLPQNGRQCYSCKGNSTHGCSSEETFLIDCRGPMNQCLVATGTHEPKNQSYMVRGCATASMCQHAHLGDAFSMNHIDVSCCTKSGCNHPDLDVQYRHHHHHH", "test": "low resolution Biacore, mAb captured by goat anti-human, hu-uPAR 312 nM;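 also: surface plasmon resonance on a CM5 chip with goat anti-human antibody surface made by amine coupling, each mAb from supernatant captured per flow cell, kinetics fitted including mass transport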", "units": {"Kd": "nM", "koff": "s⁻¹", "kon": "M⁻¹ s⁻¹"}, "description": "(§2) A high-density goat anti-human antibody surface over a CM5 Biacore™ chip was prepared using routine amine coupling. […] Each mAb was captured on a separate flow cell using a 30-second contact time at 10 μL/min followed by a 5-minute wash at a 100 μL/min flow rate for stabilization of the mAb baseline. […] All antigen samples were prepared in the running buffer.\nA mass transport coefficient was used in fitting the data.", "values": [
      {"binder": "B1", "Kd": 20.6, "koff": 0.0013, "kon": 63000},
      {"binder": "B2", "Kd": 3.5, "koff": 0.00042, "kon": 120000},
      {"binder": "B3", "Kd": 2.7, "koff": 0.00032, "kon": 120000},
      {"binder": "B4", "Kd": 12.6, "koff": 0.0012, "kon": 95000},
      {"binder": "B5", "Kd": 2.2, "koff": 0.00026, "kon": 120000}
    ]},
    {"molecular_target": "T4, murine uPAR (form not stated) (mouse, UniProt P35456 24-297, limits assumed)", "T4 construct": "also called mouse uPAR", "T4 sequence (looked up)": "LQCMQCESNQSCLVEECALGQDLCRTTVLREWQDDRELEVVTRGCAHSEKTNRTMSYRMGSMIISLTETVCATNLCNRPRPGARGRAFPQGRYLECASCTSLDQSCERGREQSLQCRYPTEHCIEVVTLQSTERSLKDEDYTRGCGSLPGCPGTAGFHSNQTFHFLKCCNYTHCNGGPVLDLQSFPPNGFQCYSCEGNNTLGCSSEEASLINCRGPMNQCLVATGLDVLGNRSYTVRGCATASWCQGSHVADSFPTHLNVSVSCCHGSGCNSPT", "test": "summary column Murine X-reactivity", "values": [
      {"binder": "B1", "binding result": "no binding"},
      {"binder": "B2", "binding result": "no binding"},
      {"binder": "B3", "binding result": "no binding"},
      {"binder": "B4", "binding result": "no binding"},
      {"binder": "B5", "binding result": "no binding"}
    ]},
    {"molecular_target": "T1, human urokinase-type plasminogen …", "test": "FACS, cells expressing human uPAR, line material", "values": [
      {"binder": "B2", "Ab to cell bound Ag (line material, FACS)": 514}
    ]},
    {"molecular_target": "T5, mouse uPAR on the surface of NCTC L929 cells (mouse, UniProt P35456 24-298)", "T5 construct": "whole, on cells; also called cell surface mouse uPAR", "T5 sequence (looked up)": "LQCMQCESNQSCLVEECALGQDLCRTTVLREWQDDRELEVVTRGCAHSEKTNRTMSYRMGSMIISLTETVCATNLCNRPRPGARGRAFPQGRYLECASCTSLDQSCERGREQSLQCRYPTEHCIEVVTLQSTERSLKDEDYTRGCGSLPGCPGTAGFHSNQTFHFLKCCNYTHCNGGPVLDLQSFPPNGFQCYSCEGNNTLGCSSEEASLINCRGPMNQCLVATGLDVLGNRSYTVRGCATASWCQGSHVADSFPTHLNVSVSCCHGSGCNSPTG", "test": "FACS, NCTC L929 mouse cells", "description": "(§3) To make the mouse cross-reactivity results conclusive, direct binding of the mAbs to cell-bound mouse uPAR was measured using FACS analysis. The mouse cell line derived from the connective tissue, NCTC L929, was employed for FACS analysis. The harvested cells were resuspended at 50,000 cells/well using FACS buffer into a V-bottom plate which was put on ice. […] After washing, Cy5-labeled goat anti-human IgG Fc at 5 μg/ml and 7AAD at 5 μg/ml was added. The mixtures were incubated for 15 min on ice, washed and resuspended in cold FACS buffer for FACS analysis.", "values": [
      {"binder": "B1", "binding result": "no binding (tested: 6.25 µg/ml)"},
      {"binder": "B2", "binding result": "no binding (tested: 6.25 µg/ml)"},
      {"binder": "B3", "binding result": "no binding (tested: 6.25 µg/ml)"},
      {"binder": "B4", "binding result": "no binding (tested: 6.25 µg/ml)"},
      {"binder": "B5", "binding result": "no binding (tested: 6.25 µg/ml)"}
    ]},
    {"molecular_target": "T1, human urokinase-type plasminogen …", "test": "cell-based or functional assay", "remark": "another data set of the same source", "units": {"Plasminogen activation inhibition (IC50, ug/ml)": "µg/mL"}, "values": [
      {"binder": "B1", "Plasminogen activation inhibition (IC50, ug/ml)": 0.067},
      {"binder": "B2", "Plasminogen activation inhibition (IC50, ug/ml)": 0.066},
      {"binder": "B3", "Plasminogen activation inhibition (IC50, ug/ml)": 0.056},
      {"binder": "B4", "Plasminogen activation inhibition (IC50, ug/ml)": 0.077},
      {"binder": "B5", "Plasminogen activation inhibition (IC50, ug/ml)": 0.104}
    ]},
    {"molecular_target": "T6, human Ly6e with a myc tag, expressed in HEK293T cells (human, UniProt Q16553 21-101)", "T6 construct": "whole, on cells; not shown: myc tag fused on the molecule", "T6 sequence (looked up)": "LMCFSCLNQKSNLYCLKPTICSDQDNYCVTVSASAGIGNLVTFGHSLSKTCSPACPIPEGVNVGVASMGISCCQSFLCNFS", "test": "FACS, HEK293T cells expressing Ly6e, supernatant 1:2", "values": [
      {"binder": "B1", "binding result": "no binding (tested: GeoMean ratio 1.95)"},
      {"binder": "B3", "binding result": "no binding (tested: GeoMean ratio 1.95)"},
      {"binder": "B4", "binding result": "no binding (tested: GeoMean ratio 1.95)"},
      {"binder": "B5", "binding result": "binds"}
    ]},
    {"molecular_target": "T3, soluble recombinant human uPAR/His6 …", "test": "low resolution Biacore", "units": {"Kd": "nM"}, "description": "as §2", "values": [
      {"binder": "B1", "Kd": 20.6},
      {"binder": "B2", "Kd": 3.5},
      {"binder": "B3", "Kd": 2.7},
      {"binder": "B4", "Kd": 12.6},
      {"binder": "B5", "Kd": 2.2}
    ]},
    {"molecular_target": "T1, human urokinase-type plasminogen …", "test": "FACS, B300.19 cells expressing human uPAR, anti-human gamma Cy5", "values": [
      {"binder": "B1", "gCy5 Geo Mean Pos Cells": 317},
      {"binder": "B3", "gCy5 Geo Mean Pos Cells": 412},
      {"binder": "B4", "gCy5 Geo Mean Pos Cells": 28.2},
      {"binder": "B5", "gCy5 Geo Mean Pos Cells": 402}
    ]},
    {"molecular_target": "T3, soluble recombinant human uPAR/His6 …", "test": "limited antigen ELISA, uPAR coat 80 ng/mL, sample 1:25", "description": "(§4) ELISA plates were coated with a lower amount ofuPAR in comparison with the High Antigen Quantitation assay described below (320, 160, 80, 40 and 20 ng/mL). Samples containing one concentration of antibody (Ab) (1:25 dilution) were incubated overnight to allow Ab binding to approach equilibrium.", "values": [
      {"binder": "B1", "LA at 80 ng/ml": 0.21},
      {"binder": "B3", "LA at 80 ng/ml": 1.03},
      {"binder": "B4", "LA at 80 ng/ml": 0.24},
      {"binder": "B5", "LA at 80 ng/ml": 0.64}
    ]},
    {"molecular_target": "T3, soluble recombinant human uPAR/His6 …", "test": "limited antigen ELISA, uPAR coat 20 ng/mL, sample 1:25", "description": "as §4", "values": [
      {"binder": "B1", "LA at 20 ng/ml": 0.06},
      {"binder": "B3", "LA at 20 ng/ml": 0.16},
      {"binder": "B4", "LA at 20 ng/ml": 0.09},
      {"binder": "B5", "LA at 20 ng/ml": 0.21}
    ]},
    {"molecular_target": "T1, human urokinase-type plasminogen …", "test": "FACS competition, FITC-tc-uPA on L929 cells expressing human uPAR, supernatant 1:2", "units": {"uPA/uPAR binding Inhibition %": "%"}, "excerpt": "as §1", "values": [
      {"binder": "B1", "uPA/uPAR binding Inhibition %": 71},
      {"binder": "B3", "uPA/uPAR binding Inhibition %": 77},
      {"binder": "B4", "uPA/uPAR binding Inhibition %": 78},
      {"binder": "B5", "uPA/uPAR binding Inhibition %": 67}
    ]},
    {"molecular_target": "T5, mouse uPAR on the surface of NCTC L929 …", "test": "FACS, NCTC L929 mouse cells, mAb 6.25 µg/ml", "description": "as §3", "values": [
      {"binder": "B1", "X Geo Mean": 8.97},
      {"binder": "B2", "X Geo Mean": 11.7},
      {"binder": "B3", "X Geo Mean": 9.59},
      {"binder": "B4", "X Geo Mean": 11.2},
      {"binder": "B5", "X Geo Mean": 8.92}
    ]}
  ]
}
